Test system: methyl bromide and methyl iodide production in E. Coli
Assay: Methyl halide production by heterologous MHTs expressed in E. coli (Example 8, headspace GC/MS)
Assay type: cell-based
Conditions: 165 mM NaX, 100 uM IPTG, 1.5 hours, FIG. 7
Experimental: Nineteen methyl halide transferase genes from various organisms were codon-optimized and introduced into E. Coli. Production of methyl bromide and methyl iodide was determined for each. […] Group II UBA; Cryptococcus neoformans var. neoformans JEC21; Oryza sativa (japonica cultivar-group); Ostreococcus tauri; Dechloromonas aromatica RCB; Coprinopsis cinerea okayama; Robiginitalea bofirmata HTCC2501; Maricaulis maris MCS10; Flavobacteria bacterium BBFL7; Vitis vinifera and; halorhodospira halophila SL1.
For each strain a single colony was picked and grown overnight (10-14 hrs) in 20 mL of LB miller in a 30 mL glass test tube with aeration (a loose cap) at 37 C and 250 rpm shaking. The culture was spun down in a swinging bucket centrifuge for 5 min @ 3000×g. The cells were resuspended in 20mL of appropriate media (10 g/L Tryptone, 5 g/L Yeast Extract, 165 mM NaX [where X=CI, Br, I]) containing 100 uM IPTG inducer. The cells were sealed with rubber stoppers and parafilm and grown at 37 C with 250 rpm shaking for 1.5 hours. Cultures were taken to the GC/MS and 100 uL of headspace gas was sampled and loaded onto the column. The method run was VOIGT.m. The number of counts for the appropriate mass (MeCl, MeBr, MeI) were reported. Cells were always grown in the presence of 30 ug/mL chloramphenicol.
Methyl halide production was measured as described in the previous Examples. […] C. neoformans JEC21 gave the best methyl bromide and methyl iodide production. Leptospirillum gave the best methyl iodide production.

Row | Molecule | methyl bromide production | methyl iodide production
1 | C. neoformans JEC21: methyl halide transferase (hypothetical protein) from Cryptococcus neoformans var. neoformans JEC21, SEQ ID NO: 12 (protein, Cryptococcus neoformans) MAQASGDDNAWEERWAQGRTAFDQSAAHPVFVKFLKSDIARELGVPKSGKALVPGCGRGYDVHLLASTGLDAIGLDLAPTGVEAARRWIGSQPSTSGKADILVQDFFTYDPLEKFDLIYDYTFLCALPPSLRQEWARQTTHLANIAADTNPILITLMYPLPPSAKSGGPPFALSEEIYQELLKEQGWKMVWSEDIEEPTRMVGAPGGEKLAVWKRI | best | best
2 | B. phymatum: methyl halide transferase from Burkholderia phymatum STM815, SEQ ID NO: 4 (protein, listed as Burkholderia phymatum) MSDKRPSVPPSAPDFENRDPNAPGFWDERFGRGFTPWDQAGVPPAFKAFVERHSPVPVLIPGCGSAYEARWLAEKGWTVRAIDFAPNAVEAARAQLGSHASLVHEADFFTYRPPFDPGWIYERAFLCALPPARRSDWVARMAQLLSPGGLLAGFFFIGATEKGPPFGIERAELDALMSPDFTLVEDEPVDDSIAVFAGRERWLTWRRRGAARG | best | –
3 | Leptospirillum: methyl halide transferase from Leptospirillum sp. Group II UBA, SEQ ID NO: 11 (protein, Leptospirillum species, synthetic polypeptide of methyl halide transferase thereof) MPDKIFWNQRYLDKNTGWDLGQPAPPFVRLVEKGEFGPPGRVLIPGAGRSYEGIFLASRGYDVTCVDFAPQAVREAREAARQAGVKLTVVEEDFFRLDPRTIGVFDYLVEHTCFCAIDPPMRQAYVDQSHALLAPGGLLIGLFYAHGREGGPPWTTTEEEVRGLFGKKFDLLSLGLTDWSVDSRKGEELLGRLRRKNDRIE | – | best

Same assay, conditions: FIG. 7

Row | Molecule | methyl halide transferase activity | halide specificity of methyl halide production
4 | RB: methyl halide transferase from Robiginitalea bofirmata HTCC2501, SEQ ID NO: 17 (protein, listed as Robiginitalea biformata) MTDLDRDFWEDRYRAGTDRWDLGGPSPPLTAYIDGLTDQELRILVPGAGRGYEAEYLYRAGFENLTIVDLARRPLDDLRRRLPELPAAALQQTDFFSFRGGPFDLILEHTFFCALPPARRPDYVQAMHRLLVPGGRLAGLFFDFPLTEDGPPFGGSETEYRNRFSSLFHIRKLERARNSIPPRAGTELFFIFEKK | insignificant activity | –
5 | VV: methyl halide transferase from Vitis vinifera, SEQ ID NO: 20 (protein, listed as Vitis vinifera) MASPDNTKPKARSSESVTGQRRGRRPSDRHWPCVGEESGSFYNTIADGERQYQHRIELRASKNKPSSWEEKWQQGLTPWDLGKATPIIEHLHQAGALPNGRTLIPGCGRGYDVVAIACPERFVVGLDISDSAIKKAKESSSSSWNASHFIFLKADFFTWNPTELFDLIIDYTFFCAIEPDMRPAWASRMQQLLKPDGELLTLMFPISDHTGGPPYKVSIADYEKVLHPMRFKAVSIVDNEMAIGSRKKKYPLKPDLSLFGFVDRPKRAYEARSEEFRISDWVCGWMGLCVPSGRISGGVCGLLSGRSLTWAKNLGVSTTQLRMSNNGSSIESNPKVQKLNQIIGSDSAGGWEKSWQQGHTPWDLGKPTPIIQHLHQTGTLPSGKTLVPGCGCGYDVVTIACPERFVVGLDISDSAIKKAKEISDHAGGPPYKVSVADYEEVLHPMGFKAVSIVDNKMAIGPRKGREKLGRWKRTPSKSLL | insignificant activity | –
6 | D. aromatica: methyl halide transferase from Dechloromonas aromatica RCB, SEQ ID NO: 15 (protein, listed as Dechloromonas aromatica) MSETIKPPEQRPEHPDFWCKRFGEGVTPWDAGKVPMAFVDFVGAQTTPLNSLIPGCGSAWEAAHLAELGWPVTALDFSPLAIEKAREVLGDSPVKLVCADFFTFAPRQPLDLIYERAFLCALPRKLWADWGKQVAELLPSGARLAGFFFLCDQPKGPPFGILPAQLDELLRPNFELIEDQPVGDSVPVFAGRERWQVWRRR | – | significant specificity for methyl iodide production
7 | AT-2: methyl halide transferase from Arabidopsis thaliana TM2, SEQ ID NO: 10 (protein, listed as Arabidopsis thaliana) MAEEQQNSDQSNGGNVIPTPEEVATFLHKTVEEGGWEKCWEEEITPWDQGRATPLIVHLVDTSSLPLGRALVPGCGGGHDVVAMASPERFVVGLDISESALAKANETYGSSPKAEYFSFVKEDVFTWRPTELFDLIFDYVFFCAIEPEMRPAWAKSMYELLKPDGELITLMYPITDHVGGPPYKVDVSTFEEVLVPIGFKAVSVEENPHAIPTRQREAGKVEEDQLIPKKEILLFGKSVICVIYKE | insignificant activity | –
8 | HH: methyl halide transferase from Halorhodospira halophila SL1, SEQ ID NO: 21 (protein, listed as Halorhodospira halophila) MSGDPDPRRAPWEARWREGRTGWDRGGVSPTLEAWLSAGVIPGRRVLVPGAGRGYEVEALARRGYKVTAVDIAAEACQQLRDGLDAAGVEARVVQADLLAWQPDTPFDAVYEQTCLCALDPADWPAYEQRLYGWLRPGGVLLALFMQTGASGGPPFHCALPEMATLFDSERWQWPAEPPRQWPHPSGRWEEAVRLLRR | insignificant activity | –
9 | O. tauri: methyl halide transferase (unnamed protein product) from Ostreococcus tauri, SEQ ID NO: 14 (protein, listed as Ostreococcus tauri) MTTSSAPTRHTSMRVALAAPATVTRRLGTYKRVFDRRAMSTRAIDGAVTSNAGDFARQDGSTDWEGMWSRGITKGAAFDCSRTEPAFQNALDAKEIAIGSGRALVPGCGRGYALASLARAGFGDVVGLEISETAKEACEEQLKAESIPETARVEVVVADFFAYDPKEAFDAAYDCTFLCAIDPRRREEWARKHASLIKPGGTLVCLVFPVGDFEGGPPYALTPEIVRELLAPAGFEEIELRETPAEMYARGRLEYLFTWRRRS | – | significant specificity for methyl iodide production
10 | FB: methyl halide transferase from Flavobacteria bacterium BBFL7, SEQ ID NO: 19 (protein, listed as Flavobacteria bacterium) MPLNKQYWEDRYKNNSTGWDLGIISTPIKEYVNQLENKNSKILIPGAGNAHEATYLVKNGFKNIFILDIALSPLKFAKQRSKLPEEHLIQQDFFDHKGSYDLIIEQTFFCALEPRFRESYVKKIHMLLRDQGCLIGVLFNFENNLSSPPFGGSINEYLNLFEPYFEIVTMEPCNNSVIERQGKEIFIKLKKKK | insignificant activity | –
11 | C. cinerea: methyl halide transferase (hypothetical protein) from Coprinopsis cinerea okayama, SEQ ID NO: 16 (protein, Synthetic polypeptide of hypothetical protein of coprinopsis cinerea.) MADPNLAPEIRAKMQEIFKPDDRHSWDLLWKENITPWDAGDAQPSLIELIEESGLDFARKGRALVPGCGTGYDAVYLASALGLQTIGMDISESAVEAANRYRDSSGVQGADRAIFQKADFFTYKVPDEERFDLIMDHTFFCAIHPSLRPEWGQRMSELIKPGGYLITICFPMIPKVETGPPYYLRPEHYDEVLKETFEKVYDKVPTKSSENHKDKERMLVWKKK | – | significant specificity for methyl iodide production
12 | MM: methyl halide transferase from Maricaulis maris MCS10, SEQ ID NO: 18 (protein, listed as Maricaulis maris) MTHDENRSAFDWEARFIDGNTPWERGALHPAFEAWQHQSAFAAGDRALIPGCGRSPELLALAQAGLAVTGADLSGTAMAWQRKLFADAGQQVELITGDVFDWQPQQALDLVYEQTFLCAIHPRLRTRYEEALARWLKPGGRLYALFMQKPERGGPPFDCALDAMRALFPAERWTWPAEADIQPWPHPQLNGKAELGAVLIRR | insignificant activity | –
13 | O. sativa: methyl halide transferase from Oryza sativa (japonica cultivar-group), SEQ ID NO: 13 (protein, listed as Oryza sativa) MASAIVDVAGGGRQQALDGSNPAVARLRQLIGGGQESSDGWSRCWEEGVTPWDLGQRTPAVVELVHSGTLPAGDATTVLVPGCGAGYDVVALSGPGRFVVGLDICDTAIQKAKQLSAAAAAAADGGDGSSSFFAFVADDFFTWEPPEPFHLIFDYTFFCALHPSMRPAWAKRMADLLRPDGELITLMYLAEGQEAGPPFNTTVLDYKEVLNPLGLVITSIEDNEVAVEPRKGMEKIARWKRMTKSD | – | significant specificity for methyl iodide production

— patent US9040266B2, “Cell-based systems for production of methyl formate” (The Regents of the University of California, priority 2009, dated 2015)
